Test results from patent US20250213707A1, “COMPOUND FOR INCREASING EFFICACY OF ONCOLYTIC VIRUSES” (ABLEVIA BIOTECH GMBH, priority 2022, published 2025).

The substances below were run against Polyclonal antibody ab6982 (Abcam) (assay: cyclic peptide microarray, fiber peptides).
AYSMSFS (peptide) gave a rank of binding signal of 167 rank. EYWNFRN (peptide) gave a rank of binding signal of 113 rank. In the case of YTESYIA (peptide), the rank of binding signal is reported as 181 rank. In the case of IFATSSY (peptide), the rank of binding signal is reported as 104 rank. YSMSFSW (peptide) was tested, and the rank of binding signal was 8 rank. YINEIFA (peptide) gave a rank of binding signal of 168 rank. NQLNLRL (peptide) was tested, and the rank of binding signal was 72 rank. In the case of NYINEIF (peptide), the rank of binding signal is reported as 16 rank. Substance HNLDINY (peptide) has a rank of binding signal of 9 rank. Substance SSYTFSY (peptide) has a rank of binding signal of 42 rank. In the case of FVSPNG (peptide), the rank of binding signal is reported as 13 rank. LGTGLSF (peptide) showed a rank of binding signal of 44 rank. LNNSFLD (peptide) showed a rank of binding signal of 180 rank. QNQLNLR (peptide) showed a rank of binding signal of 82 rank. Work on PELTPPF (peptide) yielded a rank of binding signal of 47 rank. Work on SAYSMSF (peptide) yielded a rank of binding signal of 108 rank. Work on GQGPLFI (peptide) yielded a rank of binding signal of 58 rank. Work on QLNLRLG (peptide) yielded a rank of binding signal of 136 rank. For SAHLIIR (peptide), the rank of binding signal was 65 rank. FLDPEYW (peptide) showed a rank of binding signal of 50 rank. Work on QSAHLII (peptide) yielded a rank of binding signal of 126 rank. With PEYWNFR (peptide) the rank of binding signal was 31 rank. LNLRLGQ (peptide) was tested, and the rank of binding signal was 173 rank. In the case of DTFNPVY (peptide), the rank of binding signal is reported as 130 rank. MSFSWDW (peptide) was tested, and the rank of binding signal was 22 rank. In the case of HLIIRFD (peptide), the rank of binding signal is reported as 60 rank. Substance QGPLFIN (peptide) has a rank of binding signal of 93 rank. SFSWDWS (peptide) gave a rank of binding signal of 100 rank. ARPSEDT (peptide) showed a rank of binding signal of 41 rank. DPEYWNE (peptide) was tested, and the rank of binding signal was 53 rank. AQNQLNI (peptide) showed a rank of binding signal of 172 rank. FSWDWSG (peptide) was tested, and the rank of binding signal was 186 rank. For NKGLYLF (peptide), the rank of binding signal was 20 rank. In the case of SMSFSWD (peptide), the rank of binding signal is reported as 144 rank. AHLIIRF (peptide) showed a rank of binding signal of 6 rank. SYTFSYI (peptide) gave a rank of binding signal of 64 rank. Work on ATSSYTF (peptide) yielded a rank of binding signal of 80 rank. SWDWSGH (peptide) was tested, and the rank of binding signal was 193 rank. RPSEDTF (peptide) was tested, and the rank of binding signal was 24 rank. Substance LGQGPLF (peptide) has a rank of binding signal of 27 rank.

What follows are substances tested against Polyclonal antibody ab6982 (Abcam) (assay: cyclic peptide microarray, hexon peptides).
Substance DDDNEDE (peptide) has a rank of binding signal of 96 rank. NLEEEDD (peptide) showed a rank of binding signal of 65 rank. Substance TRYFSMW (peptide) has a rank of binding signal of 73 rank. Work on DRMYSFF (peptide) yielded a rank of binding signal of 86 rank. EDEVDEQ (peptide) was tested, and the rank of binding signal was 126 rank. EINLEEE (peptide) showed a rank of binding signal of 6 rank. In the case of DDNEDEV (peptide), the rank of binding signal is reported as 78 rank. With INLEEED (peptide) the rank of binding signal was 32 rank. Substance KDRMYSF (peptide) has a rank of binding signal of 143 rank. For ALEINLE (peptide), the rank of binding signal was 33 rank. With GDRTRYF (peptide) the rank of binding signal was 80 rank. YSFFRNF (peptide) gave a rank of binding signal of 104 rank. VDEQAEQ (peptide) gave a rank of binding signal of 20 rank. For DIETPDT (peptide), the rank of binding signal was 62 rank. Substance EDDDNED (peptide) has a rank of binding signal of 63 rank. Work on LEINLEE (peptide) yielded a rank of binding signal of 4 rank. For ETPDTHI (peptide), the rank of binding signal was 51 rank. With IETPDTH (peptide) the rank of binding signal was 45 rank. For IGYQGFY (peptide), the rank of binding signal was 136 rank. Work on NIGYQGF (peptide) yielded a rank of binding signal of 187 rank. Substance EEDDDNE (peptide) has a rank of binding signal of 108 rank. EVDEQAE (peptide) showed a rank of binding signal of 17 rank. Substance DEVDEQA (peptide) has a rank of binding signal of 10 rank.
